We go through one molecule from US20130224191A1, “NOTUM PROTEIN MODULATORS AND METHODS OF USE” (priority 2010, published 2013).

Assay [1] deals with T1, Notum (Homo sapiens, UniProt Q6P988).
T1 sequence (Q6P988 20-496): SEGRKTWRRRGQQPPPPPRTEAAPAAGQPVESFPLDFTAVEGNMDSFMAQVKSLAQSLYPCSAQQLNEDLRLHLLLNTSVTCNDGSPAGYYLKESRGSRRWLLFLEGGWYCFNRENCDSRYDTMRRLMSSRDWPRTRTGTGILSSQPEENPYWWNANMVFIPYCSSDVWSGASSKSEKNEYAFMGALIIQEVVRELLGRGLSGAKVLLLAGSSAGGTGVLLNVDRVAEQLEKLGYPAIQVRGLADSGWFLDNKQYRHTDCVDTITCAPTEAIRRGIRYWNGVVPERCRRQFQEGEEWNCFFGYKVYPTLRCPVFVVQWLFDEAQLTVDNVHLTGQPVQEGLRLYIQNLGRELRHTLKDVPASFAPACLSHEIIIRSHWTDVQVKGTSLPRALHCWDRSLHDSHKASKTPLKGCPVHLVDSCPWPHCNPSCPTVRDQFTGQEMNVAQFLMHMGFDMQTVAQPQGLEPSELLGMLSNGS
Briefly: Epitope mapping ELISA, human Notum. The format is binding. Set-up: made in house. The method, then: Binding of SC2.D2.2 and other mouse mAbs to purified Notum molecules generated from transient transfection of Human and Mouse Notum cDNAs were tested using ELISA assay with human Notum, mouse Notum and chimeric human/mouse Notum coated directly on ELISA plate. Binding of anti-Notum mAbs was detected with HRP-conjugated goat anti mouse antibody and followed by colorimetric horseradish peroxidase substrate (TMB substrate Thermo Scientific). The absorbance of each well of the ELISA plates was measured at 450 nm on a microplate autoreader.

Assay [2] addresses T2, human Notum D141N, D141S (Homo sapiens, UniProt Q6P988, D141N).
T2 construct: made in house
T2 sequence (Q6P988 20-496 D141N): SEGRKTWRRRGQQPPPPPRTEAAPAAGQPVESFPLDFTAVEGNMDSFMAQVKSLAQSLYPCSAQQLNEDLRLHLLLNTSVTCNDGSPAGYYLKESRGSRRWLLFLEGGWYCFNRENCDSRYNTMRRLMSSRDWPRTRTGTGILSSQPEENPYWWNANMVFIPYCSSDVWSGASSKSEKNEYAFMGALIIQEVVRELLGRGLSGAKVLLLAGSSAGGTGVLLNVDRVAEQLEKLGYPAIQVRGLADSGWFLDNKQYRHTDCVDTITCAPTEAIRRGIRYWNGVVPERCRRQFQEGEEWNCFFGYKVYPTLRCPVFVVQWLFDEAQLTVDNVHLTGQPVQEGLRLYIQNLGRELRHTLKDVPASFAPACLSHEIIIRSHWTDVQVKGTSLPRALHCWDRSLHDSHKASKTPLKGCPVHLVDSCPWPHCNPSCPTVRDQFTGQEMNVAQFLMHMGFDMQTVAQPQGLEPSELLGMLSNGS
Nature of the assay: Neutralization of point mutated human Notum, TCF assay. The format is cell-based. The conditions noted are these: human D141N or D141S. An excerpt:
Similarly, the macaque residue at this position was point mutated to the human residue (N141D). […] However, these point mutants differed in their ability to be neutralized by SC2.D2.2 (FIG. 26).

The target in assay [3] is T1, Notum. Nature of the assay: 293.TCF assay with rhWnt3A, standard and preincubation protocol. Type of assay: cell-based. How it is done: In order to determine the kinetics of Notum mediated antagonism of Wnt3A signaling, recombinant Notum alone or in the presence of SC2.D2.2 was preincubated with recombinant human Wnt3A (rhWnt3A) for 2 hours at 37° C., prior to addition of the complexes to 293.TCF cells. This resultant induction of luciferase by the rhWnt3A was compared to that observed using the standard protocol for the 293.TCF assay, in which Notum alone or Notum+SC2.D2.2 was added to the cells for two hours prior to the addition of rhWnt3A. […] Of interest however, is the preincubation of Notum and rhWnt3A prior to addition to the 293.TCF cells. In this case the response of the cells to rhWnt3A is reduced greatly (closed circles FIG. 27B).

B1: SC2.D2.2 (antibody, V domains shown)
VH: DVQLVESGGGLVQPGGSRKISCAASGFTFSSYGMHWVRQAPEKGLEWVAYISSSTVTTYYADTVKGRFTISRDNANNTLFLQMTSLRSEDTAMYYCSRQNWDGGYFDVWGAGTTVTVSS
VL: DIVLTQSLASLAVSLGQRATISCRASKSVSSSGYSYMHWYQQKPGQPPKLLIYLASNLESGVPARFSGSGSGTDFTLNIHPVEEEDAATYYCQHSRALPLTFGAGTKLELKR
notes: also called murine SC2.D2.2
Take B1: in assay [1], the “binding to human Notum” value is “confirmed the binding”. In addition, the “neutralization of mutant Notum protein” value in assay [2] is “eliminated the ability of SC2.D2.2 to neutralize the mutant Notum protein”. Also, the “effect on response of cells to rhWnt3A” value in assay [3] (Notum complexed with antibody prior to preincubation with rhWnt3A, 2 hours at 37° C.) was “restores the sensitivity of the cells to rhWnt3A”. In addition, the “effect on Notum antagonism of rhWnt3A” value in assay [3] (standard protocol, 10 μg/mL antibody, 250 ng/mL rhWnt3A) is reported as “blocks the ability of Notum to antagonize the rhWnt3A”.
